Results taken from article PMC8081924 (The Journal of Biological Chemistry, 2021).
Values joined by “and” are separate entries in the source; they are usually repeats but may differ in a detail not shown here. Equal entries are not always repeated. Where two headings read alike, the source gives them in different places.

What was measured:
O43175 = experiment: AUC
AUC [1] = target: the molecule itself; experiment: AUC
[2] = target: the molecule itself
[3] = target: the molecule itself; experiment: cell-based or functional assay
AUC [4] = target: the molecule itself; experiment: AUC; remark: listed apart in the source
AUC [5] = target: the molecule itself; experiment: AUC; remark: listed apart in the source
AUC [6] = target: the molecule itself; experiment: AUC; remark: listed apart in the source

B1: sPHGDH (catalytic unit of human D-3-phosphoglycerate dehydrogenase, 1-307), wild type (domain or fragment, UniProt O43175 1-307, looked up)
chain: MAFANLRKVLISDSLDPCCRKILQDGGLQVVEKQNLSKEELIAELQDCEGLIVRSATKVTADVINAAEKLQVVGRAGTGVDNVDLEAATRKGILVMNTPNGNSLSAAELTCGMIMCLARQIPQATASMKDGKWERKKFMGTELNGKTLGILGLGRIGREVATRMQSFGMKTIGYDPIISPEVSASFGVQQLPLEEIWPLCDFITVHTPLLPSTTGLLNDNTFAQCKKGVRVVNCARGGIVDEGALLRALQSGQCAGAALDVFTEEPPRDRALVDHENVISCPHLGASTKEAQSRCGEEIAVQFVDMV
total concentration at which the dimer and monomer peak ratio is 1:1 (O43175): the 1:1 ratio at about 1 μM | stoichiometry N (AUC [1]): 2 | Kd [2]: 580 nM

B2: sPHGDH R135A (domain or fragment, human, UniProt O43175 1-307, looked up)
chain: MAFANLRKVLISDSLDPCCRKILQDGGLQVVEKQNLSKEELIAELQDCEGLIVRSATKVTADVINAAEKLQVVGRAGTGVDNVDLEAATRKGILVMNTPNGNSLSAAELTCGMIMCLARQIPQATASMKDGKWEAKKFMGTELNGKTLGILGLGRIGREVATRMQSFGMKTIGYDPIISPEVSASFGVQQLPLEEIWPLCDFITVHTPLLPSTTGLLNDNTFAQCKKGVRVVNCARGGIVDEGALLRALQSGQCAGAALDVFTEEPPRDRALVDHENVISCPHLGASTKEAQSRCGEEIAVQFVDMV
enzyme activity of the sPHGDH mutant at 2.4 μM against WT [3]: ~80 % of WT | stoichiometry N (AUC [4]): 2

B3: sPHGDH R236E (domain or fragment, human, UniProt O43175 1-307, looked up)
chain: MAFANLRKVLISDSLDPCCRKILQDGGLQVVEKQNLSKEELIAELQDCEGLIVRSATKVTADVINAAEKLQVVGRAGTGVDNVDLEAATRKGILVMNTPNGNSLSAAELTCGMIMCLARQIPQATASMKDGKWERKKFMGTELNGKTLGILGLGRIGREVATRMQSFGMKTIGYDPIISPEVSASFGVQQLPLEEIWPLCDFITVHTPLLPSTTGLLNDNTFAQCKKGVRVVNCAEGGIVDEGALLRALQSGQCAGAALDVFTEEPPRDRALVDHENVISCPHLGASTKEAQSRCGEEIAVQFVDMV
stoichiometry N (AUC [4]): 2

B4: sPHGDH R135W (domain or fragment, human, UniProt O43175 1-307, looked up)
chain: MAFANLRKVLISDSLDPCCRKILQDGGLQVVEKQNLSKEELIAELQDCEGLIVRSATKVTADVINAAEKLQVVGRAGTGVDNVDLEAATRKGILVMNTPNGNSLSAAELTCGMIMCLARQIPQATASMKDGKWEWKKFMGTELNGKTLGILGLGRIGREVATRMQSFGMKTIGYDPIISPEVSASFGVQQLPLEEIWPLCDFITVHTPLLPSTTGLLNDNTFAQCKKGVRVVNCARGGIVDEGALLRALQSGQCAGAALDVFTEEPPRDRALVDHENVISCPHLGASTKEAQSRCGEEIAVQFVDMV
stoichiometry N (AUC [4]): 2

B5: full-length human D-3-phosphoglycerate dehydrogenase (PHGDH, 1-533), wild type (enzyme, UniProt O43175 1-533, looked up)
chain: MAFANLRKVLISDSLDPCCRKILQDGGLQVVEKQNLSKEELIAELQDCEGLIVRSATKVTADVINAAEKLQVVGRAGTGVDNVDLEAATRKGILVMNTPNGNSLSAAELTCGMIMCLARQIPQATASMKDGKWERKKFMGTELNGKTLGILGLGRIGREVATRMQSFGMKTIGYDPIISPEVSASFGVQQLPLEEIWPLCDFITVHTPLLPSTTGLLNDNTFAQCKKGVRVVNCARGGIVDEGALLRALQSGQCAGAALDVFTEEPPRDRALVDHENVISCPHLGASTKEAQSRCGEEIAVQFVDMVKGKSLTGVVNAQALTSAFSPHTKPWIGLAEALGTLMRAWAGSPKGTIQVITQGTSLKNAGNCLSPAVIVGLLKEASKQADVNLVNAKLLVKEAGLNVTTSHSPAAPGEQGFGECLLAVALAGAPYQAVGLVQGTTPVLQGLNGAVFRPEVPLRRDLPLLLFRTQTSDPAMLPTMIGLLAEAGVRLLSYQTSLVSDGETWHVMGISSLLPSLEAWKQHVTEAFQFHF
stoichiometry N (AUC [5]): 2 and 4

B6: full-length PHGDH E108A (enzyme, human, UniProt O43175 1-533, looked up)
chain: MAFANLRKVLISDSLDPCCRKILQDGGLQVVEKQNLSKEELIAELQDCEGLIVRSATKVTADVINAAEKLQVVGRAGTGVDNVDLEAATRKGILVMNTPNGNSLSAAALTCGMIMCLARQIPQATASMKDGKWERKKFMGTELNGKTLGILGLGRIGREVATRMQSFGMKTIGYDPIISPEVSASFGVQQLPLEEIWPLCDFITVHTPLLPSTTGLLNDNTFAQCKKGVRVVNCARGGIVDEGALLRALQSGQCAGAALDVFTEEPPRDRALVDHENVISCPHLGASTKEAQSRCGEEIAVQFVDMVKGKSLTGVVNAQALTSAFSPHTKPWIGLAEALGTLMRAWAGSPKGTIQVITQGTSLKNAGNCLSPAVIVGLLKEASKQADVNLVNAKLLVKEAGLNVTTSHSPAAPGEQGFGECLLAVALAGAPYQAVGLVQGTTPVLQGLNGAVFRPEVPLRRDLPLLLFRTQTSDPAMLPTMIGLLAEAGVRLLSYQTSLVSDGETWHVMGISSLLPSLEAWKQHVTEAFQFHF
stoichiometry N (AUC [6]): 2

B7: full-length PHGDH R119A (enzyme, human, UniProt O43175 1-533, looked up)
chain: MAFANLRKVLISDSLDPCCRKILQDGGLQVVEKQNLSKEELIAELQDCEGLIVRSATKVTADVINAAEKLQVVGRAGTGVDNVDLEAATRKGILVMNTPNGNSLSAAELTCGMIMCLAAQIPQATASMKDGKWERKKFMGTELNGKTLGILGLGRIGREVATRMQSFGMKTIGYDPIISPEVSASFGVQQLPLEEIWPLCDFITVHTPLLPSTTGLLNDNTFAQCKKGVRVVNCARGGIVDEGALLRALQSGQCAGAALDVFTEEPPRDRALVDHENVISCPHLGASTKEAQSRCGEEIAVQFVDMVKGKSLTGVVNAQALTSAFSPHTKPWIGLAEALGTLMRAWAGSPKGTIQVITQGTSLKNAGNCLSPAVIVGLLKEASKQADVNLVNAKLLVKEAGLNVTTSHSPAAPGEQGFGECLLAVALAGAPYQAVGLVQGTTPVLQGLNGAVFRPEVPLRRDLPLLLFRTQTSDPAMLPTMIGLLAEAGVRLLSYQTSLVSDGETWHVMGISSLLPSLEAWKQHVTEAFQFHF
stoichiometry N (AUC [6]): 2

B8: full-length PHGDH I121A (enzyme, human, UniProt O43175 1-533, looked up)
chain: MAFANLRKVLISDSLDPCCRKILQDGGLQVVEKQNLSKEELIAELQDCEGLIVRSATKVTADVINAAEKLQVVGRAGTGVDNVDLEAATRKGILVMNTPNGNSLSAAELTCGMIMCLARQAPQATASMKDGKWERKKFMGTELNGKTLGILGLGRIGREVATRMQSFGMKTIGYDPIISPEVSASFGVQQLPLEEIWPLCDFITVHTPLLPSTTGLLNDNTFAQCKKGVRVVNCARGGIVDEGALLRALQSGQCAGAALDVFTEEPPRDRALVDHENVISCPHLGASTKEAQSRCGEEIAVQFVDMVKGKSLTGVVNAQALTSAFSPHTKPWIGLAEALGTLMRAWAGSPKGTIQVITQGTSLKNAGNCLSPAVIVGLLKEASKQADVNLVNAKLLVKEAGLNVTTSHSPAAPGEQGFGECLLAVALAGAPYQAVGLVQGTTPVLQGLNGAVFRPEVPLRRDLPLLLFRTQTSDPAMLPTMIGLLAEAGVRLLSYQTSLVSDGETWHVMGISSLLPSLEAWKQHVTEAFQFHF
stoichiometry N (AUC [6]): 2

B9: full-length PHGDH G140R (enzyme, human, UniProt O43175 1-533, looked up)
chain: MAFANLRKVLISDSLDPCCRKILQDGGLQVVEKQNLSKEELIAELQDCEGLIVRSATKVTADVINAAEKLQVVGRAGTGVDNVDLEAATRKGILVMNTPNGNSLSAAELTCGMIMCLARQIPQATASMKDGKWERKKFMRTELNGKTLGILGLGRIGREVATRMQSFGMKTIGYDPIISPEVSASFGVQQLPLEEIWPLCDFITVHTPLLPSTTGLLNDNTFAQCKKGVRVVNCARGGIVDEGALLRALQSGQCAGAALDVFTEEPPRDRALVDHENVISCPHLGASTKEAQSRCGEEIAVQFVDMVKGKSLTGVVNAQALTSAFSPHTKPWIGLAEALGTLMRAWAGSPKGTIQVITQGTSLKNAGNCLSPAVIVGLLKEASKQADVNLVNAKLLVKEAGLNVTTSHSPAAPGEQGFGECLLAVALAGAPYQAVGLVQGTTPVLQGLNGAVFRPEVPLRRDLPLLLFRTQTSDPAMLPTMIGLLAEAGVRLLSYQTSLVSDGETWHVMGISSLLPSLEAWKQHVTEAFQFHF
stoichiometry N (AUC [6]): 2
